Results as given in US20060286032A1, “A radiosotope-chitosan complex for treatment of prostate cancer” (priority 2003, published 2006).
“Also recorded” adds a separate entry of the source. Marks after values point to notes of the source that are not given here.

What was measured:
[1] = Autoradiography, complex solution versus ^166Ho(NO3)3.5H2O solution not containing chitosan, injected into the prostate gland; format: in vivo, rats; conditions: for Radioactive concentration, Administration site / Radioactive concentration, End region of femur / Radioactive concentration, Liver / Radioactive concentration, Spine / Radioactive concentration, Kidney / Radioactive concentration, Spleen: 25 μl (about 100 μCi)
Protocol: To investigate advantages of the ^166Ho-chitosan complex, autoradiography was carried out for a group administered with the complex solution and a control group administered with a ^166Ho(NO3)3.5H2O solution not containing chitosan. In the complex solution administration group, 25 μl of the complex solution was administered, which was equal to about 100 μCi. The control group was administered with a ^166Ho(NO3)3.5H2O solution not containing chitosan with the same dosage and radioactive concentration as in the complex solution administration group. This test was carried out according to the same method as in Experimental Example 1, and each test drug was administered to the prostate gland. After 0.5, 2, 6 and 24 hrs, rats were sacrificed and evaluated by autoradiography. The measured radioactive concentrations (% ID/g) in various organs after injection of the complex solution and the ^166Ho(NO3)3.5H2O solution are given in Table 2, below.

[2] = Radioactive concentrations in collected organs and tissues by liquid scintillation counter after injection into the prostate gland; format: in vivo, SD rats; conditions: for Administered radioactivity retained in the prostate gland: until 144 hrs after administration
Protocol: After the complex solution was administered, accurate radioactive concentrations were measured in various organs. 25 μl of the complex solution as a test drug were administered to the prostate gland in the abdominal region of SD rats, which was equal to about 100 μCi. After 0.5, 2, 6, 24, 72 and 144 hrs, the rats were anesthetized with diethylether and exsanguinated by incision of abdominal aorta. Various organs and tissues were collected, which included blood, plasma, brain, thymus, heart, lung, liver, kidney, adrenal gland, spleen, pancreas, testes, prostate gland (including an administration site), seminal vesicle, epididymis, bladder, skeletal muscle, bones, bone marrow, skin, carcass, stomach, small intestine, rectum and large intestine. The collected organs and tissues were weighed, sectioned and homogenized. The whole sample or the supernatant was assayed for radioactivity using a liquid scintillation counter. The measured radioactive concentrations in various organs and tissues according to the time are given in Table 3 (% ID/g) and Table 4 (% of dose).

[3] = system: AIT carcinoma (androgen-independent carcinoma cell line); assay: Antitumor effect in AIT subcutaneous tumor model; format: in vivo, noble rats; conditions: for Tumor weight: four weeks after administration; for Tumor growth inhibition rate: four weeks, tumor weight vs control
Protocol: To evaluate the effect of the complex on hormone-independent prostate cancer, an AIT carcinoma (androgen-independent carcinoma cell line) was transplanted into noble rats, and the antitumor effect of the complex was examined.
An androgen-independent, prostate carcinoma cell line, AIT, which is derived from noble rats, was cultured in 10% FBS-containing DMEM at 37° under 5% CO2. The cultured carcinoma cells were suspended in sterile physiological saline at a density of 4×10^6 cells/ml, and 2×10^6 cells were subcutaneously transplanted into the lateral abdomen of male 5-week noble rats. When the long axis of the tumor was about 1 cm long (in this test, 14 days after transplantation), the rats were grouped according to the tumor mass. The kit prepared in Example 2 was used as a test drug, and was administered at the same dose as in Experimental Example 5, that is, 0.2 ml. The rats were divided into four groups: a control group (no treatment); two administration groups administered with the complex solution at 10 mCi and 20 mCi per 1 cm^3 tumor; and another administration group administered with a non-radioactive complex solution (Holmium-165 (^165Ho)-chitosan complex solution). Four weeks after administration with the complex solution, tumors were excised from the rats, and tumor growth inhibition rates were measured by weighing the tumors.

[4] = system: AIT prostate carcinoma cells; assay: Antitumor effect in orthotopic tumor model, AIT transplanted into the prostate gland; format: in vivo, noble rats
Protocol: In addition to the subcutaneous tumor model tested in Experimental Example 6, the antitumor effect and side effects of the complex solution was examined in an orthotopic tumor model where AIT prostate carcinoma cells had been directly transplanted into the prostate gland. AIT cells were cultured in 10% FBS-containing DMEM at 37° under 5% CO2. The cultured carcinoma cells were suspended in sterile physiological saline at a density of 2×10^6 cells/0.05 ml. After noble rats were anesthetized with fentanyl and the abdomen was opened, 2×10^6 cells per rat were transplanted into the prostate gland of the rats. Seven days after carcinoma transplantation, the rats were randomly allocated. The kit prepared in Example 2 was used as a test drug, and 0.05 ml of the kit was administered. The rats were divided into four groups: a control group (no treatment); two administration groups administered with 0.5 mCi and 1.0 mCi of the complex solution; and another administration group administered with a non-radioactive complex solution (Holmium-165 (^165Ho)-chitosan complex solution). Two and four weeks after administration of the complex solution, the rats were sacrificed, and tumors were excised from the rats and weighed.

[5] = Histopathological examination of organs of rats of the orthotopic model (hematoxylin and eosin); format: in vivo, noble rats; conditions: for Histopathological changes in organs other than the tumor tissue (heart, lung, liver, kidney, spleen, testes, epididymis, seminal vesicle, bladder, rectum): last day of the test
Text: From all rats tested in Experimental Example 7, which were sacrificed on the last day of the test, the heart, lung, liver, kidney, spleen, testes, epididymis, seminal vesicle, bladder, rectum and tumor tissues were excised, embedded in paraffin according to general tissue processing, and sectioned into a thickness of 3 μm. The tissue sections were subjected to double staining with hematoxylin and eosin and histopathologically examined.

[6] = listed as radioisotope-chitosan complex

Holmium-166 (^166Ho)-Chitosan Complex [complex solution]
Radioactive concentration, Administration site ([1]; 30 min): 4149 ± 1563.2 % ID/g | Radioactive concentration, End region of femur ([1]; 30 min): 0.04 ± 0.015 % ID/g | Radioactive concentration, Liver ([1]; 30 min): 0.01 ± 0.004 % ID/g | Radioactive concentration, Spine ([1]; 30 min): 0.01 ± 0.002 % ID/g | Radioactive concentration, Administration site ([1]; 2 hrs): 3246 ± 764.0 % ID/g | Radioactive concentration, End region of femur ([1]; 2 hrs): 0.07 ± 0.013 % ID/g | Radioactive concentration, Liver ([1]; 2 hrs): 0.016 % ID/g | Radioactive concentration, Spine ([1]; 2 hrs): 0.02 ± 0.004 % ID/g | Radioactive concentration, Administration site ([1]; 6 hrs): 4815 ± 1177.4 % ID/g | Radioactive concentration, End region of femur ([1]; 6 hrs): 0.21 ± 0.101 % ID/g | Radioactive concentration, Kidney ([1]; 6 hrs): 0.02^b % ID/g | Radioactive concentration, Liver ([1]; 6 hrs): 0.04 ± 0.024 % ID/g | Radioactive concentration, Spine ([1]; 6 hrs): 0.05 ± 0.024 % ID/g | Radioactive concentration, Spleen ([1]; 6 hrs): 0.03 ± 0.027 % ID/g | Radioactive concentration, Administration site ([1]; 24 hrs): 3998 ± 705.1 % ID/g | Radioactive concentration, End region of femur ([1]; 24 hrs): 0.55 ± 0.324 % ID/g | Radioactive concentration, Kidney ([1]; 24 hrs): 0.03 ± 0.016 % ID/g | Radioactive concentration, Liver ([1]; 24 hrs): 0.04 ± 0.004 % ID/g | Radioactive concentration, Spine ([1]; 24 hrs): 0.14 ± 0.070 % ID/g | Radioactive concentration, Spleen ([1]; 24 hrs): 0.04 ± 0.010 % ID/g | Radioactivity retained in the administration site, the prostate gland ([1]; 24 hrs after being administered): ~90% | Radioactive concentration, Blood ([2]; 30 min after injection): 26 ± 10 % ID/g ×10^−4 | Radioactive concentration, Bones ([2]; 30 min after injection): 71 ± 55 % ID/g ×10^−4 | Radioactive concentration, Plasma ([2]; 30 min after injection): 44 ± 16 % ID/g ×10^−4 | Radioactive concentration, Blood ([2]; 2 hrs after injection): 19 ± 9 % ID/g ×10^−4 | Radioactive concentration, Bones ([2]; 2 hrs after injection): 189 ± 79 % ID/g ×10^−4 | Radioactive concentration, Plasma ([2]; 2 hrs after injection): 32 ± 11 % ID/g ×10^−4 | Radioactive concentration, Bone marrow ([2]; 6 hrs after injection): 17 % ID/g ×10^−4 | Radioactive concentration, Bones ([2]; 6 hrs after injection): 185 ± 107 % ID/g ×10^−4 | Radioactive concentration, Bone marrow ([2]; 24 hrs after injection): 32 ± 4 % ID/g ×10^−4 | Radioactive concentration, Bones ([2]; 24 hrs after injection): 711 ± 413 % ID/g ×10^−4 | Radioactive concentration in other tissues (other than prostate gland, carcass, liver) ([2]; 72 hrs after administration): less than 0.1% | Radioactive concentration, Bone marrow ([2]; 72 hrs after injection): 109 ± 40 % ID/g ×10^−4 | Radioactive concentration, Bones ([2]; 72 hrs after injection): 2343 ± 827 % ID/g ×10^−4 | Radioactive concentration, Bones ([2]; 144 hrs after injection): 1708 ± 506 % ID/g ×10^−4 | Radioactivity in major organs (brain, thymus, heart, lung, adrenal gland, spleen) and adjacent organs (bladder, rectum, testes, epididymis) ([2]; rat, in vivo): rarely detected | Administered radioactivity retained in the prostate gland [2]: over 98% | Administered radioactivity retained in the prostate gland [2, 6]: more than 98% | Tumor weight ([3]; 10 mCi per 1 cm^3 tumor): 2.1 ± 0.78 g | Tumor growth inhibition rate ([3]; 10 mCi per 1 cm^3 tumor): 90.7% | Tumor weight ([3]; 20 mCi per 1 cm^3 tumor): 0.7 ± 0.18 g | Tumor growth inhibition rate ([3]; 20 mCi per 1 cm^3 tumor): 96.7% | Inhibitory activity against the tumor growth ([3]; subcutaneous tumor model): higher than 90% | Tumor weight ([4]; 0.5 mCi, 2 wks after administration): 0.45 ± 0.07 g | Tumor weight ([4]; 0.5 mCi, 4 wks after administration): 1.58 ± 0.97 g | Tumor weight ([4]; 1.0 mCi, 2 wks after administration): 0.49 ± 0.08 g | Tumor weight ([4]; 1.0 mCi, 4 wks after administration): 1.09 ± 0.32 g | Effect on tumor growth ([4]; two weeks after administration, listed as present complex): showed an inhibitory effect against the tumor growth; also recorded: the tumor growth was suppressed | Histopathological changes in organs other than the tumor tissue (heart, lung, liver, kidney, spleen, testes, epididymis, seminal vesicle, bladder, rectum) ([5]; listed as present complex solution): no abnormalities in adjacent organs were found | Histopathological changes in organs other than the tumor tissue (heart, lung, liver, kidney, spleen, testes, epididymis, seminal vesicle, bladder, rectum) [5, 6]: particular histopathological changes are not found | Cellularity of the bone marrow and peripheral blood ([5]; rat, in vivo): not reduced
